Test results: patent publication US20170306033A1 (Amgen, published 2017)

T1: human PAC1 receptor (human, UniProt P41586 21-468)
T1 sequence: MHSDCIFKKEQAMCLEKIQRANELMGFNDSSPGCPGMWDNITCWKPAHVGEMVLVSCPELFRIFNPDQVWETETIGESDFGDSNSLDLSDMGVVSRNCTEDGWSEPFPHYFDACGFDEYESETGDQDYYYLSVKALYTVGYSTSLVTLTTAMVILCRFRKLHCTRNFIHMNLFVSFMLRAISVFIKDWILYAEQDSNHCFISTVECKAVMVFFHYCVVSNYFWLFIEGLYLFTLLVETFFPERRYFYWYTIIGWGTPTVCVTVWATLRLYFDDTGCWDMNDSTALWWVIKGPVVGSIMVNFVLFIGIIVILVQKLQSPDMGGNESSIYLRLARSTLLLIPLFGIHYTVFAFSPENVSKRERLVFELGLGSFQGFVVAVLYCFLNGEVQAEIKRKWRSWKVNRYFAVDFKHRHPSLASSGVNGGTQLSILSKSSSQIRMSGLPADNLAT


Legend:
human CGRP receptor = human CGRP receptor (human, UniProt Q16602 23-461; O60894 27-148); experiment: cell-based or functional assay
human PAC1 receptor = biological target: T1, human PAC1 receptor; experiment: cell-based or functional assay

Sequence of human CGRP receptor (Q16602 23-461 limits assumed, chain 1 of 2): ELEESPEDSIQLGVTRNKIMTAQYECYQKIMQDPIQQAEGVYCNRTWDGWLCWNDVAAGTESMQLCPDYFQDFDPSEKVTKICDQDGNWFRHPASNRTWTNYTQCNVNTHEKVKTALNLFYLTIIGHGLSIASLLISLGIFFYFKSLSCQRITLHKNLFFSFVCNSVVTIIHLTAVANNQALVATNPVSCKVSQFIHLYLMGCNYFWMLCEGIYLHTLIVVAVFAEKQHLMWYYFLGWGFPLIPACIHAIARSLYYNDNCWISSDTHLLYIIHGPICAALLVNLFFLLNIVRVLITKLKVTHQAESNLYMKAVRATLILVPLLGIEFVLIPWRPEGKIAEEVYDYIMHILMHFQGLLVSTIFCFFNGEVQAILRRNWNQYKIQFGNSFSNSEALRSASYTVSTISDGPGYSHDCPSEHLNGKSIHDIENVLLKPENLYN
Sequence of human CGRP receptor (O60894 27-148 limits assumed, chain 2 of 2): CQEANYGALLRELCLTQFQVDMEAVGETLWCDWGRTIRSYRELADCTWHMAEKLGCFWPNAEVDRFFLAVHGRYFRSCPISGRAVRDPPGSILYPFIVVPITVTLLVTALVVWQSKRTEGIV

Binder | % inhibition of human CGRPR (human CGRP receptor) [%] | % inhibition of human PAC1 (human PAC1 receptor) [%]
iPS:326626 (bispecific antibody, human IgG2, kappa, lambda) light 1: not shown heavy 1: QVQLQQSGPGLVKPSQTLSLTCAISGDSVSSNSATWNWIRQSPSRGLEWLGRTYYRSKWSNHYAVSVKSRITINPDTSKSQFSLQLNSVTPEDTAVYYCARGTWKQLWFLDHWGQGTLVTVSSASTKGPSVFPLAPCSRSTSESTAALGCLVKDYFPEPVTVSWNSGALTSGVHTFPAVLQSSGLYSLKSVVTVPSSNFGTQTYTCNVDHKPSNTKVDKTVERKCCVECPPCPAPPVAGPSVFLFPPKPKDTLMISRTPEVTCVVVDVSHEDPEVQFNWYVDGVEVHNAKTKPREEQFNSTFRVVSVLTVVHQDWLNGKEYKCKVSNKGLPAPIEKTISKTKGQPREPQVYTLPPSREEMTKNQVSLTCLVDGFYPSDIAVEWESNGQPENNYDTTPPMLDSDGSFFLYSDLTVDKSRWQQGNVFSCSVMHEALHNHYTQKSLSLSPGK light 2: not shown heavy 2: not shown | 96 | 86
iPS:327103 (bispecific antibody, human IgG1, kappa, lambda, N297G) light 1: DIQLTQSPSFLSASVGDRVTITCRASQSIGRSLHWYQQKPGKAPKLLIKYASQSLSGVPSRFSGSGSGTEFTLTISSLQPEDFATYYCHQSSRLPFTFGPGTKVDIKRTVAAPSVFIFPPSDEQLKSGTASVVCLLNNFYPREAKVQWKVDNALQSGNSQESVTEQDSKDSTYSLESTLTLSKADYEKHKVYACEVTHQGLSSPVTKSFNRGEC heavy 1: not shown light 2: not shown heavy 2: not shown | 82 | 21
iPS:327104 (bispecific antibody, human IgG1, kappa, lambda, N297G) light 1: EIVLTQSPATLSLSPGERATLSCRASQSVGRSLHWYQQKPGQAPRLLIKYASQSLSGIPARFSGSGSGTDFTLTISSLEPEDFAVYYCHQSSRLPFTFGPGTKVDIKRTVAAPSVFIFPPSDEQLKSGTASVVCLLNNFYPREAKVQWKVDNALQSGNSQESVTEQDSKDSTYSLESTLTLSKADYEKHKVYACEVTHQGLSSPVTKSFNRGEC heavy 1: not shown light 2: not shown heavy 2: not shown | 81 | 95
iPS:326654 (bispecific antibody, human IgG2, kappa, lambda) light 1: EIVLTQSPATLSLSPGERATLSCRASQSVGRSLHWYQQKPGQAPRLLIKYASQSLSGIPARFSGSGSGTDFTLTISSLEPEDFAVYYCHQSSRLPFTFGPGTKVDIKRTVAAPSVFIFPPSDEQLKSGTASVVCLLNNFYPREAKVQWKVDNALQSGNSQESVTEQDSKDSTYSLESTLTLSKADYEKHKVYACEVTHQGLSSPVTKSFNRGEC heavy 1: QVQLVESGGGVVQPGRSLRLSCAASGFTFSRFAMHWVRQAPGKGLEWVAVISYDGGNKYYAESVKGRFTISRDNSKNTLYLQMNSLRAEDTALFYCARGYDVLTGYPDYWGQGTLVTVSSASTKGPSVFPLAPCSRSTSESTAALGCLVKDYFPEPVTVSWNSGALTSGVHTFPAVLQSSGLYSLKSVVTVPSSNFGTQTYTCNVDHKPSNTKVDKTVERKCCVECPPCPAPPVAGPSVFLFPPKPKDTLMISRTPEVTCVVVDVSHEDPEVQFNWYVDGVEVHNAKTKPREEQFNSTFRVVSVLTVVHQDWLNGKEYKCKVSNKGLPAPIEKTISKTKGQPREPQVYTLPPSREEMTKNQVSLTCLVDGFYPSDIAVEWESNGQPENNYDTTPPMLDSDGSFFLYSDLTVDKSRWQQGNVFSCSVMHEALHNHYTQKSLSLSPGK light 2: not shown heavy 2: not shown | 79 | 99
iPS:327106 (bispecific antibody, human IgG1, kappa, lambda, N297G) light 1: not shown heavy 1: not shown light 2: not shown heavy 2: EVQLVESGGGLVKPGGSLRLSCAASGFTFGNAWMSWVRQAPGKELEWVGRIKSKTDGGTTDYAAPVKGRFTISRDDSKNTLYLQMNSLKTEDTAVYFCTTDRTGYSISWSSYYYYYGMDVWGQGTTVTVSSASTKGPSVFPLAPSSKSTSGGTAALGCLVKDYFPEPVTVSWNSGALTSGVHTFPAVLQSSGLYSLESVVTVPSSSLGTQTYICNVNHKPSNTKVDKKVEPKSCDKTHTCPPCPAPELLGGPSVFLFPPKPKDTLMISRTPEVTCVVVDVSHEDPEVKFNWYVDGVEVHNAKTKPCEEQYGSTYRCVSVLTVLHQDWLNGKEYKCKVSNKALPAPIEKTISKAKGQPREPQVYTLPPSRKEMTKNQVSLTCLVKGFYPSDIAVEWESNGQPENNYKTTPPVLKSDGSFFLYSKLTVDKSRWQQGNVFSCSVMHEALHNHYTQKSLSLSPGK | 71 | 6
iPS:327107 (bispecific antibody, human IgG1, kappa, lambda, N297G) light 1: DIQLTQSPSFLSASVGDRVTITCRASQSIGRSLHWYQQKPGKAPKLLIKYASQSLSGVPSRFSGSGSGTEFTLTISSLQPEDFATYYCHQSSRLPFTFGEGTKVDIKRTVAAPSVFIFPPSDEQLKSGTASVVCLLNNFYPREAKVQWKVDNALQSGNSQESVTEQDSKDSTYSLESTLTLSKADYEKHKVYACEVTHQGLSSPVTKSFNRGEC heavy 1: not shown light 2: not shown heavy 2: EVQLVESGGGLVKPGGSLRLSCAASGFTFGNAWMSWVRQAPGKELEWVGRIKSKTDGGTTDYAAPVKGRFTISRDDSKNTLYLQMNSLKTEDTAVYFCTTDRTGYSISWSSYYYYYGMDVWGQGTTVTVSSASTKGPSVFPLAPSSKSTSGGTAALGCLVKDYFPEPVTVSWNSGALTSGVHTFPAVLQSSGLYSLESVVTVPSSSLGTQTYICNVNHKPSNTKVDKKVEPKSCDKTHTCPPCPAPELLGGPSVFLFPPKPKDTLMISRTPEVTCVVVDVSHEDPEVKFNWYVDGVEVHNAKTKPCEEQYGSTYRCVSVLTVLHQDWLNGKEYKCKVSNKALPAPIEKTISKAKGQPREPQVYTLPPSRKEMTKNQVSLTCLVKGFYPSDIAVEWESNGQPENNYKTTPPVLKSDGSFFLYSKLTVDKSRWQQGNVFSCSVMHEALHNHYTQKSLSLSPGK | 76 | 22
iPS:327108 (bispecific antibody, human IgG1, kappa, lambda, N297G) light 1: EIVLTQSPATLSLSPGERATLSCRASQSVGRSLHWYQQKPGQAPRLLIKYASQSLSGIPARFSGSGSGTDFTLTISSLEPEDFAVYYCHQSSRLPFTFGEGTKVDIKRTVAAPSVFIFPPSDEQLKSGTASVVCLLNNFYPREAKVQWKVDNALQSGNSQESVTEQDSKDSTYSLESTLTLSKADYEKHKVYACEVTHQGLSSPVTKSFNRGEC heavy 1: not shown light 2: not shown heavy 2: EVQLVESGGGLVKPGGSLRLSCAASGFTFGNAWMSWVRQAPGKELEWVGRIKSKTDGGTTDYAAPVKGRFTISRDDSKNTLYLQMNSLKTEDTAVYFCTTDRTGYSISWSSYYYYYGMDVWGQGTTVTVSSASTKGPSVFPLAPSSKSTSGGTAALGCLVKDYFPEPVTVSWNSGALTSGVHTFPAVLQSSGLYSLESVVTVPSSSLGTQTYICNVNHKPSNTKVDKKVEPKSCDKTHTCPPCPAPELLGGPSVFLFPPKPKDTLMISRTPEVTCVVVDVSHEDPEVKFNWYVDGVEVHNAKTKPCEEQYGSTYRCVSVLTVLHQDWLNGKEYKCKVSNKALPAPIEKTISKAKGQPREPQVYTLPPSRKEMTKNQVSLTCLVKGFYPSDIAVEWESNGQPENNYKTTPPVLKSDGSFFLYSKLTVDKSRWQQGNVFSCSVMHEALHNHYTQKSLSLSPGK | 66 | 74
iPS:327092 (bispecific antibody, human IgG1, kappa, N297G) light 1: not shown heavy 1: not shown light 2: EIVLTQSPGTLSLSPGERATLSCRASQSVSSGYLTWYQQKPGQAPRLLIYGASSRATGIPDRFSGSGSGTDFTLTISRLEPEDFAVYYCQQYGNSLSRFGQGTKLEIKRTVAAPSVFIFPPSDEQLKSGTASVVCLLNNFYPREAKVQWKVDNALQSGNSQESVTEQDSKDSTYSLKSTLTLSKADYEKHKVYACEVTHQGLSSPVTKSFNRGEC heavy 2: not shown | 73 | 52
iPS:327025 (bispecific antibody, human IgG1, kappa, N297G) light 1: DIQLTQSPSFLSASVGDRVTITCRASQSIGRSLHWYQQKPGKAPKLLIKYASQSLSGVPSRFSGSGSGTEFTLTISSLQPEDFATYYCHQSSRLPFTFGEGTKVDIKRTVAAPSVFIFPPSDEQLKSGTASVVCLLNNFYPREAKVQWKVDNALQSGNSQESVTEQDSKDSTYSLESTLTLSKADYEKHKVYACEVTHQGLSSPVTKSFNRGEC heavy 1: not shown light 2: EIVLTQSPGTLSLSPGERATLSCRASQSVSSGYLTWYQQKPGQAPRLLIYGASSRATGIPDRFSGSGSGTDFTLTISRLEPEDFAVYYCQQYGNSLSRFGKGTKLEIKRTVAAPSVFIFPPSDEQLKSGTASVVCLLNNFYPREAKVQWKVDNALQSGNSQESVTEQDSKDSTYSLKSTLTLSKADYEKHKVYACEVTHQGLSSPVTKSFNRGEC heavy 2: not shown | 76 | 21
iPS:327093 (bispecific antibody, human IgG1, kappa, N297G) light 1: DIQLTQSPSFLSASVGDRVTITCRASQSIGRSLHWYQQKPGKAPKLLIKYASQSLSGVPSRFSGSGSGTEFTLTISSLQPEDFATYYCHQSSRLPFTFGPGTKVDIKRTVAAPSVFIFPPSDEQLKSGTASVVCLLNNFYPREAKVQWKVDNALQSGNSQESVTEQDSKDSTYSLESTLTLSKADYEKHKVYACEVTHQGLSSPVTKSFNRGEC heavy 1: not shown light 2: EIVLTQSPGTLSLSPGERATLSCRASQSVSSGYLTWYQQKPGQAPRLLIYGASSRATGIPDRFSGSGSGTDFTLTISRLEPEDFAVYYCQQYGNSLSRFGQGTKLEIKRTVAAPSVFIFPPSDEQLKSGTASVVCLLNNFYPREAKVQWKVDNALQSGNSQESVTEQDSKDSTYSLKSTLTLSKADYEKHKVYACEVTHQGLSSPVTKSFNRGEC heavy 2: not shown | 70 | 68
iPS:327024 (bispecific antibody, human IgG1, kappa, N297G) light 1: not shown heavy 1: not shown light 2: EIVLTQSPGTLSLSPGERATLSCRASQSVSSGYLTWYQQKPGQAPRLLIYGASSRATGIPDRFSGSGSGTDFTLTISRLEPEDFAVYYCQQYGNSLSRFGKGTKLEIKRTVAAPSVFIFPPSDEQLKSGTASVVCLLNNFYPREAKVQWKVDNALQSGNSQESVTEQDSKDSTYSLKSTLTLSKADYEKHKVYACEVTHQGLSSPVTKSFNRGEC heavy 2: not shown | 75 | 7
iPS:327094 (bispecific antibody, human IgG1, kappa, N297G) light 1: EIVLTQSPATLSLSPGERATLSCRASQSVGRSLHWYQQKPGQAPRLLIKYASQSLSGIPARFSGSGSGTDFTLTISSLEPEDFAVYYCHQSSRLPFTFGPGTKVDIKRTVAAPSVFIFPPSDEQLKSGTASVVCLLNNFYPREAKVQWKVDNALQSGNSQESVTEQDSKDSTYSLESTLTLSKADYEKHKVYACEVTHQGLSSPVTKSFNRGEC heavy 1: not shown light 2: EIVLTQSPGTLSLSPGERATLSCRASQSVSSGYLTWYQQKPGQAPRLLIYGASSRATGIPDRFSGSGSGTDFTLTISRLEPEDFAVYYCQQYGNSLSRFGQGTKLEIKRTVAAPSVFIFPPSDEQLKSGTASVVCLLNNFYPREAKVQWKVDNALQSGNSQESVTEQDSKDSTYSLKSTLTLSKADYEKHKVYACEVTHQGLSSPVTKSFNRGEC heavy 2: not shown | 73 | 91
